Test: Biotransformation of flavanones with whole cells of E. coli BL21 (DE3)-AthF3H
Type: biochemical
Settings: whole cells OD10, 1 g/L substrate, pH 7, 30° C., 2 h, all substrates
Protocol: The gene (GenBank: U33932) encoding the flavanone-3-hydroxylase (F3H) from Arabidopsis thaliana was ordered codon-optimized for E. coli. E. coli BL21 (DE3) was transformed with the resulting construct. For the precultures LB medium containing kanamycin (50 μg/mL) was inoculated with E. coli BL21 (DE3) strains harboring the constructs and incubated at 37° C. and 200 rpm over-night. The preculture was used to inoculate the main culture of 400 mL LB medium containing kanamycin (50 μg/mL), which was incubated at 37° C. until the optical density at 600 nm (OD600) reached approximately 0.8. Expression of AthF3H was induced by 0.1 mM IPTG (isopropyl-D-thiogalactopyranoside) and the cultures were shaken at 20-25° C. for 20 h. The cells were harvested by centrifugation, and then resuspended in 100 mM potassium phosphate buffer (KPi, pH 7) to an OD of 50.
Biotransformations were carried out with whole cells of E. coli BL21 (DE3)-AthF3H at OD10 in a total volume of 1 mL in 100 mM potassium phosphate buffer (KPi, pH 7) containing 10% DMSO, 1 g/L of eriodictyol, hesperetin, homoeriodictyol, pinocembrin, liquiritigenin or 5-deoxyeriodictyol, 10 mM α-ketoglutarate, 10 mM ascorbic acid and 0.25 mM FeSO4 at 30° C. and 1000 rpm for 2 h. […]

B1: AthF3H: flavanone-3-hydroxylase (F3H) from Arabidopsis thaliana (GenBank: U33932), expressed in E. coli BL21 (DE3) (protein, UniProt Q9S818 1-358, looked up)
Naringenin,2-oxoglutarate …: MAPGTLTELAGESKLNSKFVRDEDERPKVAYNVFSDEIPVISLAGIDDVDGKRGEICRQIVEACENWGIFQVVDHGVDTNLVADMTRLARDFFALPPEDKLRFDMSGGKKGGFIVSSHLQGEAVQDWREIVTYFSYPVRNRDYSRWPDKPEGWVKVTEEYSERLMSLACKLLEVLSEAMGLEKESLTNACVDMDQKIVVNYYPKCPQPDLTLGLKRHTDPGTITLLLQDQVGGLQATRDNGKTWITVQPVEGAFVVNLGDHGHFLSNGRFKNADHQAVVNSNSSRLSIATFQNPAPDATVYPLKVREGEKAILEEPITFAEMYKRKMGRDLELARLKKLAKEERDHKEVDKPVDQIFA
**Q.** Which “conversion of flavanone substrates by F3H” value does the source give for B1 here?
**A.** full conversion of the available (S)-enantiomer

— patent US20260286408A1, “PROCESS FOR MAKING FLAVANONE DERIVATIVES” (priority 2022, published 2026)
